Results: patent US12416018B2, “Regulation of gene expression by aptamer-mediated modulation of alternative splicing” (MEIRAGTX GENE REGULATION LIMITED, priority 2015, dated 2025)
Where a chain is given by its changes, count along the chain named. “Also recorded” adds a separate entry of the source.

B1: DHFR_Con15ss_HP15: DHFR_Con15ss with 15 bp hairpin embedding the 5′ss; SEQ ID NO: 54 (nucleic acid)
DNA: GAGTAACGCTGTTTCTCTAACTTGTAGGAATGAATTCAGATATTTCCAGAGAATGACCACAACCTCTTCAGTAGAGGGTGAGTTGGCGAAAGCCAACTCACCCTCT
modifications: expressed or natural sequence
B2: DHFR_Con15ss_HP15x: 15 bp hairpin with broken stem; SEQ ID NO: 55 (nucleic acid)
DNA: B1 DNA with G92A, C93A, A96G, T98A, C99T, C101A, C102A, C103G, C105A
modifications: expressed or natural sequence
B3: DHFR_wt: Con 1 with wild type human DHFR exon 2, native 5′ss; SEQ ID NO: 47 (nucleic acid)
DNA: GAGTAACGCTGTTTCTCTAACTTGTAGGAATGAATTCAGATATTTCCAGAGAATGACCACAACCTCTTCAGTAGAAGGTAATGTG
modifications: expressed or natural sequence
B4: DHFR_wtStrSC35: DHFR exon 2 with stronger SC35 binding site; SEQ ID NO: 52 (nucleic acid)
DNA: B3 DNA with A33G, A34C, T35C, T36C, A38T
modifications: expressed or natural sequence
B5: DHFR_Con45ss: DHFR exon 2 with weak 5′ss from Con 4; SEQ ID NO: 50 (nucleic acid)
DNA: B3 DNA with A75G, A80G, A81T, T82G
modifications: expressed or natural sequence
B6: DHFR_wt5ssC: DHFR exon 2 with native 5′ss four nucleotides mutated to C; SEQ ID NO: 48 (nucleic acid)
DNA: B3 DNA with G78C, T79C, A80C, A81C
modifications: expressed or natural sequence
B7: DHFR_wtmtSRp40: DHFR exon 2 with mutated SRp40 binding site; SEQ ID NO: 51 / 58 (nucleic acid)
DNA 1: B3 DNA with C57A, C58A, C60A, C63A, C64A
DNA 2: GAGTAACGCTGTTTCTCTAACTTGTAGGAATGAATTCAGATATTTCCAGAGAATGAAAAAAAAATCTTCAGTAGAAGGTAATGT
modifications: expressed or natural sequence
B8: DHFR_Con15ss: DHFR exon 2 with 5′ss from Con 1; SEQ ID NO: 49 (nucleic acid)
DNA: B3 DNA with A76G, A80G, T82G, G83T
modifications: expressed or natural sequence
B9: DHFR_wtSC35hnRNPA1: DHFR exon 2, SC35 site replaced by hnRNP A1 binding site; SEQ ID NO: 53 (nucleic acid)
DNA: B3 DNA with A33T, T35G, T36G, C37G
modifications: expressed or natural sequence
B10: Con 2: luciferase with IVS2Δ, altered 5′ss; SEQ ID NO: 2 (nucleic acid)
DNA: GATTACACCCGAGGGGGATGATAAAGTAAGCCTATGGGACCCTTGATGTTTTCTTTCCCCTTCTTTTCTATGGTTAAGTTCATGTCATAGGAAGGGGAGAAGTAACAGGGTACACATATTGACCAAATCAGGGTAATTTTGCATTTGTAATTTTAAAAAATGCTTTCTTCTTTTAATATACTTTTTTGTTTATCTTATTTCTAATACTTTCCCTAATCTCTTTCTTTCAGGGCAATAATGATACAATGTATCATGCCTCTTTGCACCATTCTAAAGAATAACAGTGATAATTTCTGGGTTAAGGCAATAGCAATATTTCTGCATATAAATATTTCTGCATATAAATTGTAACTGATGTAAGAGGTTTCATATTGCTAATAGCAGCTACAATCCAGCTACCATTCTGCTTTTATTTTATGGTTGGGATAAGGCTGGATTATTCTGAGTCCAAGCTAGGCCCTTTTGCTAATCATGTTCATACCTCTTATCTTCCTCCCACAGCCGGGCGCGGTCGGTAAAGT
modifications: Luci-IVS-Luci in construct Con2
B11: DHFR_wtmtSRp40_HP15: DHFR_wtmtSRp40 with 5′ss in hairpin; SEQ ID NO: 56 (nucleic acid)
DNA: GAGTAACGCTGTTTCTCTAACTTGTAGGAATGAATTCAGATATTTCCAGAGAATGAAAAAAAAATCTTCAGTAGAAGGTAATGTGGCGAAAGCCACATTACCTTCT
modifications: expressed or natural sequence
B12: DHFR_wtmtSRp40_HP15x: DHFR_wtmtSRp40 with broken hairpin; SEQ ID NO: 57 (nucleic acid)
DNA: B11 DNA with G92A, C93A, C96G, T98A, T99C, A100T, C101G, C102A, T103G, C105A
modifications: expressed or natural sequence
B13: Con 3: luciferase with IVS2Δ, altered 5′ss; SEQ ID NO: 3 (nucleic acid)
DNA: TTCTTCGCCAAAAGCAGTAAGTCTATGGGACCCTTGATGTTTTCTTTCCCCTTCTTTTCTATGGTTAAGTTCATGTCATAGGAAGGGGAGAAGTAACAGGGTACACATATTGACCAAATCAGGGTAATTTTGCATTTGTAATTTTAAAAAATGCTTTCTTCTTTTAATATACTTTTTTGTTTATCTTATTTCTAATACTTTCCCTAATCTCTTTCTTTCAGGGCAATAATGATACAATGTATCATGCCTCTTTGCACCATTCTAAAGAATAACAGTGATAATTTCTGGGTTAAGGCAATAGCAATATTTCTGCATATAAATATTTCTGCATATAAATTGTAACTGATGTAAGAGGTTTCATATTGCTAATAGCAGCTACAATCCAGCTACCATTCTGCTTTTATTTTATGGTTGGGATAAGGCTGGATTATTCTGAGTCCAAGCTAGGCCCTTTTGCTAATCATGTTCATACCTCTTATCTTCCTCCCACAGCTCTGATTGACAAATACG
modifications: Luci-IVS-Luci in construct Con3
B14: Con 4: luciferase with IVS2Δ, weak 5′ss; SEQ ID NO: 4 (nucleic acid)
DNA: AAGAGCTGTTTCTGAGGAGGTGTGGCTATGGGACCCTTGATGTTTTCTTTCCCCTTCTTTTCTATGGTTAAGTTCATGTCATAGGAAGGGGAGAAGTAACAGGGTACACATATTGACCAAATCAGGGTAATTTTGCATTTGTAATTTTAAAAAATGCTTTCTTCTTTTAATATACTTTTTTGTTTATCTTATTTCTAATACTTTCCCTAATCTCTTTCTTTCAGGGCAATAATGATACAATGTATCATGCCTCTTTGCACCATTCTAAAGAATAACAGTGATAATTTCTGGGTTAAGGCAATAGCAATATTTCTGCATATAAATATTTCTGCATATAAATTGTAACTGATGTAAGAGGTTTCATATTGCTAATAGCAGCTACAATCCAGCTACCATTCTGCTTTTATTTTATGGTTGGGATAAGGCTGGATTATTCTGAGTCCAAGCTAGGCCCTTTTGCTAATCATGTTCATACCTCTTATCTTCCTCCCACAGCCTTCAGGATTACAAGATTCAA
modifications: Luci-IVS-Luci in construct Con4
B15: Con 1: luciferase gene with truncated human beta-globin intron 2 (IVS2Δ), original IVS2 splice sites; SEQ ID NO: 1 (nucleic acid)
DNA: GAGGTTCCATCTGCCAGGTATCAGGGTGAGTCTATGGGACCCTTGATGTTTTCTTTCCCCTTCTTTTCTATGGTTAAGTTCATGTCATAGGAAGGGGAGAAGTAACAGGGTACACATATTGACCAAATCAGGGTAATTTTGCATTTGTAATTTTAAAAAATGCTTTCTTCTTTTAATATACTTTTTTGTTTATCTTATTTCTAATACTTTCCCTAATCTCTTTCTTTCAGGGCAATAATGATACAATGTATCATGCCTCTTTGCACCATTCTAAAGAATAACAGTGATAATTTCTGGGTTAAGGCAATAGCAATATTTCTGCATATAAATATTTCTGCATATAAATTGTAACTGATGTAAGAGGTTTCATATTGCTAATAGCAGCTACAATCCAGCTACCATTCTGCTTTTATTTTATGGTTGGGATAAGGCTGGATTATTCTGAGTCCAAGCTAGGCCCTTTTGCTAATCATGTTCATACCTCTTATCTTCCTCCCACAGCAAGGATATGGGCTCACTGAGACTACATCAGCTATTCT
modifications: Luci-IVS-Luci in construct Con1 Human beta- globin intron 2 containing a deletion (IVS2) is in lowercase and flanking luciferase sequence is in uppercase.

test system: firefly luciferase gene expression in HEK 293 cells; assay: Firefly luciferase assay of HEK 293 cells transfected with splicing / Intron-Exon-Intron constructs (no ligand); type: cell-based; settings: not given
Procedure: Transfection: 3.5×10^4 HEK 293 cells were plated in 96-well flat bottom plate the day before transfection. Plasmid DNA (500 ng) was added to a tube or a 96-well U-bottom plate. Separately, TransIT-293 reagent (Mirus; 1.4 uL) was added to 50 μL Opti-mem I media (Life Technologies), and allowed to sit for 5 minutes at room temperature (RT). Then, 50 μL of this diluted transfection reagent was added to the DNA, mixed, and incubated at room temperature (“RT”) for 20 min. Finally, 7 μL of this solution was added to a well of cells in the 96-well plate.
Firefly luciferase assay of cultured cells: 24 hours after media change, plates were removed from the incubator, and equilibrated to RT for several minutes on a lab bench, then aspirated. Glo-lysis buffer (Promega, 100 μL, RT) was added, and the plates allowed to remain at RT for at least 5 minutes. Then, the well contents were mixed by 50 μL trituration, and 20 μL of each sample was mixed with 20 μL of bright-glo reagent (Promega) that had been diluted to 10% in glo-lysis buffer. 96 wells were spaced on an opaque white 384-well plate. Following a 5 min incubation at RT, luminescence was measured using Tecan machine with 500 mSec read time. The luciferase activity was expressed as mean relative light unit (RLU)±S.D.
The constructs were verified by DNA sequencing (Genewiz). DNA was transfected in HEK 293 cells and assayed for luciferase activity as described in Example 1.
Sequences containing the DHFR exon 2 with native 3′ and 5′ ss sequences, in which the 5′ss was embedded in a hairpin structure were synthesized (IDT), and cloned into the indicated vector using Golden Gate cloning strategy (NEB). Constructs were transfected into HEK 293 cells and assayed for luciferase activity as described in Example 1.

Molecule	luciferase expression relative to control constructs (in words)	fold lower luciferase expression compared with Con 1	fold increase in luciferase expression compared to the wild type DHFR exon 2 [fold]
B1	allows luciferase expression	–	–
B2	not able to restore luciferase expression; also recorded: does not restore luciferase expression	–	–
B3	–	116 fold	–
B4	–	139 fold	–
B5	luciferase expression is increased	–	–
B6	restored to the level of Con 1	–	–
B7	does not express luciferase	2,982 fold	–
B8	abolishes luciferase expression compared to Con 1; also recorded: efficiently suppresses luciferase expression	545 fold	–
B9	increased luciferase expression	–	4.3
B10	expression levels similar to Con 1 and Con 8	–	–
B11	restored luciferase expression	–	–
B12	blocked luciferase expression; also recorded: prevents expression of luciferase	–	–
B13	expression levels similar to Con 1 and Con 8	–	–
B14	significantly reduce luciferase expression	–	–
B15	did not affect gene expression	–	–

same assay, conditions: listed as DHFR_Con 15ss_HP15

Molecule	luciferase expression relative to control constructs (in words)
B1	completely restores luciferase expression to the level of Con 1

same assay, conditions: listed as DHFR_mtSRp40

Molecule	fold lower luciferase expression compared with Con 1 [fold]
B7	2982
